Holding throughout (assay): fluorescence polarisation; 37 °C, after the 25 °C reading ramped over 7 min to 37 °C and 2 min incubation; unlabeled Rb^P against 1.5 nM TMR-E2F1^TD or 7.5 nM TMR-E7^LxCxE; 25 mM Tris pH 8.0, 200 mM NaCl, 1 mM DTT, 0.1% Tween-20; apparent Kd
Holding throughout (conditions): both partners purified

The target of one test is T1, Rb^P K462E (human, UniProt P06400 380-788, K462E).
T1 construct: also called variant 8
T1 sequence (looked up): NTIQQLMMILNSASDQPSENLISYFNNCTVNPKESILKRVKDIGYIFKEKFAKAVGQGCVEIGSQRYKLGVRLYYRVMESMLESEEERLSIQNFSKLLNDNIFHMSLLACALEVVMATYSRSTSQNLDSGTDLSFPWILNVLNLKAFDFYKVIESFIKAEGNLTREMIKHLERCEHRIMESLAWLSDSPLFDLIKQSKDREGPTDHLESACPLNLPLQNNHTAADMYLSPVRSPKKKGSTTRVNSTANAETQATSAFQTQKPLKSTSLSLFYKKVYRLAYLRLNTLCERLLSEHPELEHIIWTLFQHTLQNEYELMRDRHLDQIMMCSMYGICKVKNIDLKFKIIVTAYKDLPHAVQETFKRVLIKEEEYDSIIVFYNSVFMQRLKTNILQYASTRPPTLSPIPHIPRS

A further test addresses T2, Rb^P R611S (human, UniProt P06400 380-788, R611S).
T2 construct: also called variant 38
T2 sequence (looked up): T1 sequence (looked up) with E83K, R232S

For another test, the target named is T3, Rb^P Y606C (human, UniProt P06400 380-788, Y606C).
T3 construct: also called variant 37
T3 sequence (looked up): T1 sequence (looked up) with E83K, Y227C

A further test deals with T4, Rb^P H673P (human, UniProt P06400 380-788, H673P).
T4 construct: also called variant 54
T4 sequence (looked up): T1 sequence (looked up) with E83K, H294P

The target in a further test is T5, Rb^P R621H (human, UniProt P06400 380-788, R621H).
T5 construct: also called variant 42
T5 sequence (looked up): T1 sequence (looked up) with E83K, R242H

Where a chain is given by its changes, count along the chain named. Numbers in names are those of the source. No end group written: not given here. TMR = tetramethyl rhodamine dye

B1: TMR-E2F1^TD, peptide of the E2F1 transactivation domain (peptide)
peptide: {TMR}-GEGIRDLFDCDFGDLTPLD
notes: also called E2F^TD; source: synthetic peptide, bought: GenScript
For B1, the Kd with Rb^P K462E stood at 67 nM; in the test with Rb^P R611S, 30 nM; in the test with Rb^P Y606C, 27 nM; with Rb^P H673P, 98 nM; in the test with Rb^P R621H, 48 nM.

B2: TMR-E7^LxCxE, LxCxE peptide of the E7 oncoprotein from HPV (peptide)
peptide: DLYCYEQLN
modifications: also: TMR label, position not given here
notes: source: synthetic peptide, bought: GenScript
In the case of B2, the Kd with Rb^P K462E was 32 nM; with Rb^P R611S, 15 nM; with Rb^P Y606C it was 23 nM; in the test with Rb^P H673P, 83 nM; with Rb^P R621H, 18 nM.
